# Experimental data as given in the supplement of paper PMC9732359.
# ± gives the uncertainty stated by the source.
# Assay: protein stability index of a GFP-peptide fusion (yeast GPS) (PSI 1-4); higher = more stable; sorted into four equal gates, so the index is relative within each strain
# Conditions: pdr5∆
# Summary of the method: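 Tiled yeast protein peptides of 17 residues were each joined downstream of GFP, on plasmids that also express Cherry. The pooled library was maintained in yeast, and mid-log cultures in leucine-free medium were sorted into four equal gates on the GFP/Cherry ratio. Plasmids from every gate were amplified by PCR and sequenced on Illumina, with barcodes linking reads to strains. The protein stability index of a peptide is its gate-number-weighted read frequency summed over the gates.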
row,Sequence,protein stability index
1,NDSETHTEDESTKELKF [BRN1],3.13 ± 0.13

# Same assay, conditions: san1∆
row,Sequence,protein stability index
1,LVGRLRKCETQKQWDDI [YCS4],1.53 ± 0.15
2,LVHTQIRKTPLAQKKAH [RPL3],1.65 ± 0.069
3,LVIKSGKYTLGYKSTVK [RPL30],2.5 ± 0.079
4,LVKTKELIKNYITARIM [FAS1],3.02 ± 0.27
5,LVQMYIGEGAKLVRDAF [RPT5],2.51 ± 0.27
6,LVSLLDENDSKKNNAAS [YAR002W/NUP60],2.86 ± 0.092
7,LVSSASQQLLEILVTEL [RPN2],2.16 ± 0.092
8,LWALLNFLLPDIFGDSE [ISW2],2.52 ± 0.07
9,LWDVATGETYQRFVGHK [ASC1],1.59 ± 0.17
10,LWSIHPSRQFDHYESNQ [SRB8],2.13 ± 0.11
11,LYAERVQDRGLSAVAQA [RPS3],3.3 ± 0.09
12,LYDHWDKYHEQWIKFLL [SSN8],2.84 ± 0.071
13,LYFEIIHGVLKNVDREV [FAS2],2.63 ± 0.13
14,LYGKRFFPYYVHTIIAG [PRE7],1.13 ± 0.11
15,LYKFQNFQDLSYLSETL [YML103C/NUP188],2.64 ± 0.12
16,LYKTFFKRNAVFVGTIF [QCR9],1.39 ± 0.098
17,LYNFLHKYVLTLQLYMV [RGR1],1.78 ± 0.13
18,LYPCYFDINRSHKEGRR [SEC65],1.09 ± 0.24
19,LYQDMAARHRARFRSIH [RPL20A],2.96 ± 0.051
20,LYRSIESGEFDFDLFKE [YJL039C/NUP192],3.01 ± 0.069
21,MAKDIEISASESKFILE [RRP45],2.99 ± 0.064
22,MALKKNTHNKSTKRVTK [POP7],2.82 ± 0.053
23,MAPVKSQESINQKLALV [RPL30],2.18 ± 0.13
24,MAQRTLKNKYESYDAAL [FAS2],2.999 ± 0.015
25,MASGSTTFTKVAAKWNT [PRP8],2.51 ± 0.084

row,Sequence,protein stability index
1,MATPSFGNSSPQLTFTH [YML103C/NUP188],2.83 ± 0.067
2,MEADPSLHPLFEQFEKF [RPN9],2.39 ± 0.1
3,MEDKISEFLNVPFESLQ [YIL149C/MLP2],3.33 ± 0.067
4,MEDPPSTVSGELNDNPA [YMR153W/NUP53],2.84 ± 0.077
5,MELLTQMDGFDNLGQTK [RPT4],3.65 ± 0.081
6,MEMSEKIQFILEQMELS [RPN5],2.35 ± 0.29
7,MERFSVLCNSNISKSRA [RRP6],1.98 ± 0.084
8,MESIGSDILTAEKMRGN [RRP4],3.14 ± 0.093
9,MFGIRSGNNNGGFTNLT [YDL088C/ASM4],3.19 ± 0.054
10,MFIEEPTRMVRVAKGSG [SRP54],2.75 ± 0.24
11,MFTATMTPVIEKIAAGY [PRP28],1.5 ± 0.15
12,MGAINNNIPSLTSFAEE [SNF6],3.37 ± 0.15
13,MGRMHSAGKGISSSAIP [RPS13],3.11 ± 0.048
14,MHRKSLRRASATVPSAP [YAR002W/NUP60],2.39 ± 0.064
15,MIELICSSATVPKHMLD [AAR2],1.82 ± 0.11
16,MIFETIVDGKLKTEKIF [FAS1],1.89 ± 0.1
17,MKESVVEINSSESDLDE [ESC2],3.06 ± 0.079
18,MKVEVDSFSGAKIYPGR [RPL24B],2.52 ± 0.18
19,MKYIQTEQQIEIPEGVT [RPL9B],2.39 ± 0.064
20,MLGEDEGNTVLEKGNNP [SWP82],3.11 ± 0.099
21,MLPGSSNGGGKVKPIRG [RPO31],3.15 ± 0.076
22,MLRTVTSKTVSNQFKRS [COR1],2.92 ± 0.083
23,MLWGGASMLGLFVFTEG [QCR10],2.43 ± 0.26
24,MNAGGLFGAKPQNTTAT [YGR119C/NUP57],3.35 ± 0.058
25,MNECIADQDMEDEDMVD [ESC2],3.3 ± 0.048

row,Sequence,protein stability index
1,MNEMCKKINAKEKLIGW [RPN8],3.03 ± 0.046
2,MNIKPVQKQTRAGQRTR [RPS2],1.92 ± 0.089
3,MNKIFTIFKSGEIDFIK [YML103C/NUP188],2.41 ± 0.075
4,MNVQDRRRLLGPAAAKP [MTR3],2.96 ± 0.085
5,MPGGYFHSEISPDSTVN [YAR002W/NUP60],2.54 ± 0.061
6,MPLKILLATKQHDSSAN [CSN12],2.09 ± 0.063
7,MPRLEEIDDFNDIDDLD [SEC65],2.9 ± 0.088
8,MQLEEELMKLDGTEYVL [MED6],3.21 ± 0.091
9,MQNSKVESVCQKLDILV [SMC4],2.3 ± 0.088
10,MQPFDSGHDDLVHDVVY [YGL100W/SEH1],3.13 ± 0.084
11,MRAKWRKKRTRRLKRKR [RPL41A],3.34 ± 0.16
12,MSAPTMRSTSILTEHLG [MTW1],2.87 ± 0.24
13,MSEEGPQVKIREASKDN [RPB3],2.94 ± 0.096
14,MSFIFPSYAERQSSDES [YML031W/NDC1],2.74 ± 0.066
15,MSGLPPPPPGFEEDSDL [PRP8],3.13 ± 0.075
16,MSIDEEDKDSESFSEVC [YCG1],2.48 ± 0.15
17,MSLKKCQEEVSTIEKDM [SMC2],2.75 ± 0.14
18,MSNVVQARDNSQVFGVA [RPS14A],1.94 ± 0.083
19,MSSQIIDRPKHELSRAE [SMD2],3.2 ± 0.11
20,MSVKPIDNYITNSVRLF [SRP21],1.56 ± 0.068
21,MSYVVRILSTLDRELLK [RPT3],2.55 ± 0.057
22,MTDIWNTLIPESSLTIS [ECM29],2.14 ± 0.1
23,MTEHETKDKAKKIREIY [BRR2],2.27 ± 0.18
24,MTIPHMKYAVSKTSENK [SIR2],2.75 ± 0.11
25,MTTEDPDSNHLSSETGI [SRB4],3.37 ± 0.076

row,Sequence,protein stability index
1,MVHLYSIVEECDARFDE [RPC17],3.01 ± 0.099
2,MVLYKRKPILLPDPKPL [ITC1],2.75 ± 0.067
3,MVNSHGIRYIRLKQVFN [NNF1],1.88 ± 0.19
4,MVVNGPIPDARNAALRA [SCL1],2.36 ± 0.13
5,MYQMITMGGNAELELVD [SMC4],2.6 ± 0.08
6,NAAPANVTGGKAANFIQ [SWI1],2.48 ± 0.086
7,NAASGSNSNVTNPSSIF [YOR098C/NUP1],2.3 ± 0.049
8,NAEATKEEFSSAENRDE [CSE2],3.35 ± 0.059
9,NAGTNDNSFNELTDNMS [MCD1],3.15 ± 0.042
10,NAIRIGELFLNESWKSS [SRP72],2.62 ± 0.14
11,NAKIIDAEVAQFLEQGL [SRP68],2.12 ± 0.073
12,NALDKLRNNLNSLIEEI [YCG1],2.27 ± 0.21
13,NASKVISTPIINAVLVN [RPO31],1.74 ± 0.2
14,NATEVQKESDAKNETNS [ITC1],2.67 ± 0.11
15,NAYASFLQRQGKLEVPG [RPS19A],3.21 ± 0.12
16,NCEYEDPPNEGDPFDYK [RPB3],3.36 ± 0.11
17,NCKKKKKRKKKNKSAID [RMP1],2.79 ± 0.089
18,NDFFPGEVVYLRKQKDS [ITC1],1.35 ± 0.12
19,NDFKKIGRENENENEDD [POP5],3.16 ± 0.067
20,NDHSKSANPKKTTITRV [SWI3],3.14 ± 0.08
21,NDIKLFVDDTNVYRVTV [PRP8],2.43 ± 0.072
22,NDSETHTEDESTKELKF [BRN1],3.17 ± 0.094

# Same assay, conditions: ubr1∆
row,Sequence,protein stability index
1,LVGRLRKCETQKQWDDI [YCS4],1.48 ± 0.072
